Test results as given in publication PMC6161613.

What was measured:
Dansyl-calmodulin (rat) [1] = target: Dansyl-calmodulin (rat) (UniProt P0DP29); assay: other fluorescence titration; D-CaM (12.5 nM) fluorescence enhancement on adding increasing concentrations of GST-fusion protein; absence of Ca2+ (10 mM EGTA added); Hill fit; apparent binding affinity (EC50)
Dansyl-calmodulin (rat) [2] = target: Dansyl-calmodulin (rat) (UniProt P0DP29); assay: other fluorescence titration; D-CaM (12.5 nM) fluorescence enhancement on adding increasing concentrations of GST-fusion protein; 3.9 μM free Ca2+; Hill fit; apparent binding affinity (EC50)
[3] = target: GST-Kv7.2 helices A-B fusion protein (G310-L548) K526N (human); assay: pull-down; purified GST fusion proteins immobilised on GSH-Sepharose 4B beads; CaM (10 μg) added, 45 min, room temperature; 25 mM Hepes, 120 mM KCl, 5 mM NaCl, pH 7.5 with 100 μM CaCl2; anti-CaM Western blot, band intensities quantified (n = 3)

GST-Kv7.2 helices A-B fusion protein (G310-L548) R333Q (domain or fragment)
EC50 (Dansyl-calmodulin (rat) [1]): 0.0126 µM
EC50 (Dansyl-calmodulin (rat) [2]): 0.0301 µM

GST-Kv7.2 helices A-B fusion protein (G310-L548) K526N (domain or fragment)
EC50 (Dansyl-calmodulin (rat) [1]): 0.0373 µM
EC50 (Dansyl-calmodulin (rat) [2]): 0.0559 µM

Recombinant rat brain calmodulin (from UniProt P0DP29 1-149) (natural protein)
percent lower CaM signal intensity than WT [3]: 42%
